# Where two headings read alike, the source gives them in different places.
# Tests used:
# [1] = target: the molecule itself
# Number&Brightness = target: the molecule itself; assay: Number&Brightness
Protein,stoichiometry N [1],stoichiometry N (Number&Brightness)
Influenza A virus hemagglutinin fused to mEGFP (HA-wt-mEGFP) (natural protein) not shown,3.17,
E. coli glutamine synthetase fused to mEGFP (GlnA-mEGFP) (enzyme) MSAEHVLTMLNEHEVKFVDLRFTDTKGKEQHVTIPAHQVNAEFFEEGKMFDGSSIGGWKGINESDMVLMPDASTAVIDPFFADSTLIIRCDILEPGTLQGYDRDPRSIAKRAEDYLRSTGIADTVLFGPEPEFFLFDDIRFGSSISGSHVAIDDIEGAWNSSTQYEGGNKGHRPAVKGGYFPVPPVDSAQDIRSEMCLVMEQMGLVVEAHHHEVATAGQNEVATRFNTMTKKADEIQIYKYVVHNVAHRFGKTATFMPKPMFGDNGSGMHCHMSLSKNGVNLFAGDKYAGLSEQALYYIGGVIKHAKAINALANPTTNSYKRLVPGYEAPVMLAYSARNRSASIRIPVVSSPKARRIEVRFPDPAANPYLCFAALLMAGLDGIKNKIHPGEAMDKNLYDLPPEEAKEIPQVAGSLEEALNELDLDREFLKAGGVFTDEAIDAYIALRREEDDRVRMTPHPVEFELYYSV,,11.9

# From doi:10.1101/311175 (bioRxiv, 2018)
